Publication PMC6150197, “NeoBOMB1, a GRPR-Antagonist for Breast Cancer Theragnostics: First Results of a Preclinical Study with [^67Ga]NeoBOMB1 in T-47D Cells and Tumor-Bearing Mice” (Molecules : A Journal of Synthetic Chemistry and Natural …, 2017)
Like-named read-outs stand apart in the source and are kept apart here.

What was measured:
in vivo = conditions: female, SCID, mouse, iv, total radioactivity, Biodistribution, mean ± sd, n = 4; for tissue uptake at 4 h: 4 h pi; for tissue uptake at 24 h: 24 h pi; for tissue uptake at 1 h: 1 h pi
Procedure: Female SCID mice (15 ± 3 g, six weeks of age animals at the day of arrival, NCSR “Demokritos” Animal House Facility) were acclimatized under aseptic conditions and treated with estrogens (receiving 4 mg/L β-estradiol, Sigma-Aldrich, St. Louis, MO, USA, in their drinking water,) for a week prior to inoculation. A ≈ 150 μL bolus containing a suspension of ≈1.2 × 10^7 freshly harvested human T-47D cells suspended in Matrigel (Corning Life Sciences, Inc., Bedford, MA, USA) was subcutaneously injected in their flanks. The animals were kept under estrogen treatment for additional 8 weeks till they developed well-palpable tumors (100–200 mg) at the inoculation sites.
On the day of the experiment animals were allowed access to water, but not to food. Animals in 3 groups of 4 received a 100 μL bolus of [^67Ga]NeoBOMB1 (37 kBq, corresponding to 10 pmol, or 200 pmol total peptide or 40 nmol for in vivo GRPR-blockade for each of the 3 groups) was injected in the tail vein; animals were euthanized at 4 h pi and dissected. Samples of blood, tumors and organs of interest were collected, weighed and measured for radioactivity in the gamma counter. Intestines and stomach were not emptied of their contents. In another experimental setting, mice in 3 groups of 4 received a 100 μL bolus of [^67Ga]NeoBOMB1 (37 kBq, 200 pmol); they were euthanized at 1 h, 4 h and 24 h pi and biodistribution was conducted as described above. Statistical analysis was conducted using the unpaired two-tailed Student’s t-test; values p < 0.05 were considered statistically significant.

[1] = male Swiss albino mice, iv 3 nmol total peptide, radio-HPLC
Procedure: [^67Ga]NeoBOMB1 was injected as a 100 μL bolus (11–22 MBq, 3 nmol total peptide) in the tail vein of male Swiss albino mice (30 ± 5 g, NCSR “Demokritos” Animal House Facility). Mice were anesthetized, and blood (0.5–1 mL) was collected from the heart at 5 and 30 min post injection (pi). Animals were euthanized and blood directly drawn from the heart was transferred in a pre-chilled EDTA-containing Eppendorf tube on ice. Blood samples were centrifuged for 10 min at 2000× g at 4 °C and plasma was collected. After addition of an equal volume of ice-cold MeCN the mixture was centrifuged for 10 min at 15,000× g at 4 °C. The supernatant was concentrated under a N2-flux at 40 °C to 0.05–0.1 mL, diluted with saline (0.4 mL), filtered through a 0.22 μm Millex GV filter (Millipore, Milford, MA, USA) and analyzed by RP-HPLC. The Symmetry Shield RP18 (5 μm, 3.9 mm × 20 mm) column was eluted at a flow rate of 1.0 mL/min with the following linear gradient: 100% A and 0% B to 50% A and 50% B in 50 min; (A = 0.1% aqueous TFA (v/v) and B = MeCN). The tR of the intact radiopeptide was determined by coinjection with the [^67Ga]NeoBOMB1 reference in the HPLC.

[2] = liver, 200 pmol, 200 pmol peptide (0.185 MBq/nmol) iv, Table 2 time study
[3] = lungs, 200 pmol, 200 pmol peptide (0.185 MBq/nmol) iv, Table 2 time study
[4] = muscle, 200 pmol, 200 pmol peptide (0.185 MBq/nmol) iv, Table 2 time study
[5] = pancreas, 200 pmol, 200 pmol peptide (0.185 MBq/nmol) iv, Table 2 time study
[6] = spleen, 200 pmol, 200 pmol peptide (0.185 MBq/nmol) iv, Table 2 time study
[7] = stomach (not emptied), 200 pmol, Stomach, 200 pmol peptide (0.185 MBq/nmol) iv, Table 2 time study

**Q.** Which tissue uptake at 4 h (in vivo; [2]) does the source give for `CC(C)CC(CC(C)C)NC(=O)[C@H](Cc1cnc[nH]1)NC(=O)CNC(=O)[C@@H](NC(=O)[C@H](C)NC(=O)[C@H](Cc1c[nH]c2ccccc12)NC(=O)[C@H](CCC(N)=O)NC(=O)[C@@H](Cc1ccccc1)NC(=O)COCC(=O)Nc1ccc(CNC(=O)CN2CCN(CC(=O)O)CCN(CC(=O)O)CCN(CC(=O)O)CC2)cc1)C(C)C` [[^67Ga]NeoBOMB1, metal not drawn] here?
**A.** The tissue uptake at 4 h was 7.05 ± 0.31 %ID/g.

**Q.** And the tissue uptake at 24 h (in vivo; [2])?
**A.** The tissue uptake at 24 h was 2.26 ± 0.18 %ID/g.

**Q.** And the tissue uptake at 4 h (in vivo; liver, 40 nmol, 40 nmol NeoBOMB1, in vivo GRPR-blockade)?
**A.** The tissue uptake at 4 h was 9.67 ± 0.75 %ID/g.

**Q.** What about the tissue uptake at 4 h (in vivo; lungs, 10 pmol, 10 pmol peptide (3.7 MBq/nmol) iv) of the same molecule?
**A.** Its tissue uptake at 4 h is 0.5 ± 0.06 %ID/g.

**Q.** And the tissue uptake at 1 h (in vivo; [3])?
**A.** The tissue uptake at 1 h was 2.88 ± 0.2 %ID/g.

**Q.** What about the tissue uptake at 4 h (in vivo; lungs, 200 pmol, 200 pmol peptide (0.185 MBq/nmol) iv, Table 1 dose study) of the same molecule?
**A.** The tissue uptake at 4 h was 0.43 ± 0.06 %ID/g.

**Q.** And the tissue uptake at 4 h (in vivo; [3])?
**A.** The tissue uptake at 4 h was 0.47 ± 0.04 %ID/g.

**Q.** And the tissue uptake at 24 h (in vivo; [3])?
**A.** The tissue uptake at 24 h was 0.15 ± 0.02 %ID/g.

**Q.** What about the tissue uptake at 4 h (in vivo; lungs, 40 nmol, 40 nmol NeoBOMB1, in vivo GRPR-blockade) of the same molecule?
**A.** Its tissue uptake at 4 h is 0.42 ± 0.02 %ID/g.

**Q.** And the tissue uptake at 4 h (in vivo; muscle, 10 pmol, 10 pmol peptide (3.7 MBq/nmol) iv)?
**A.** Its tissue uptake at 4 h is 0.1 ± 0.03 %ID/g.

**Q.** And the tissue uptake at 1 h (in vivo; [4])?
**A.** Its tissue uptake at 1 h is 0.58 ± 0.11 %ID/g.

**Q.** And the tissue uptake at 4 h (in vivo; muscle, 200 pmol, 200 pmol peptide (0.185 MBq/nmol) iv, Table 1 dose study)?
**A.** The tissue uptake at 4 h was 0.12 ± 0.01 %ID/g.

**Q.** And the tissue uptake at 4 h (in vivo; [4])?
**A.** Its tissue uptake at 4 h is 0.17 %ID/g.

**Q.** And the tissue uptake at 24 h (in vivo; [4])?
**A.** The tissue uptake at 24 h was 0.13 ± 0.01 %ID/g.

**Q.** What about the tissue uptake at 4 h (in vivo; muscle, 40 nmol, 40 nmol NeoBOMB1, in vivo GRPR-blockade) of the same molecule?
**A.** The tissue uptake at 4 h was 0.16 ± 0.06 %ID/g.

**Q.** And the tissue uptake at 4 h (in vivo; pancreas, 10 pmol, 10 pmol peptide (3.7 MBq/nmol) iv)?
**A.** The tissue uptake at 4 h was 206 ± 17.4 %ID/g.

**Q.** And the tissue uptake at 1 h (in vivo; [5])?
**A.** Its tissue uptake at 1 h is 32.5 ± 0.78 %ID/g.

**Q.** What about the tissue uptake at 4 h (in vivo; pancreas, 200 pmol, 200 pmol peptide (0.185 MBq/nmol) iv, Table 1 dose study) of the same molecule?
**A.** The tissue uptake at 4 h was 42.5 ± 1.31 %ID/g.

**Q.** What about the tissue uptake at 4 h (in vivo; [5]) of the same molecule?
**A.** The tissue uptake at 4 h was 36.9 ± 3.58 %ID/g.

**Q.** What about the tissue uptake at 24 h (in vivo; [5]) of the same molecule?
**A.** The tissue uptake at 24 h was 21.3 ± 2.77 %ID/g.

**Q.** What about the tissue uptake at 4 h (in vivo; pancreas, 40 nmol, 40 nmol NeoBOMB1, in vivo GRPR-blockade) of the same molecule?
**A.** The tissue uptake at 4 h was 1.17 ± 0.11 %ID/g.

**Q.** What about the tissue uptake at 4 h (in vivo; spleen, 10 pmol, 10 pmol peptide (3.7 MBq/nmol) iv) of the same molecule?
**A.** The tissue uptake at 4 h was 1.02 ± 0.09 %ID/g.

**Q.** And the tissue uptake at 1 h (in vivo; [6])?
**A.** Its tissue uptake at 1 h is 1.71 ± 0.5 %ID/g.

**Q.** And the tissue uptake at 4 h (in vivo; spleen, 200 pmol, 200 pmol peptide (0.185 MBq/nmol) iv, Table 1 dose study)?
**A.** Its tissue uptake at 4 h is 0.7 ± 0.09 %ID/g.

**Q.** What about the tissue uptake at 4 h (in vivo; [6]) of the same molecule?
**A.** Its tissue uptake at 4 h is 0.89 ± 0.12 %ID/g.

**Q.** What about the tissue uptake at 24 h (in vivo; [6]) of the same molecule?
**A.** Its tissue uptake at 24 h is 0.46 ± 0.08 %ID/g.

**Q.** What about the tissue uptake at 4 h (in vivo; spleen, 40 nmol, 40 nmol NeoBOMB1, in vivo GRPR-blockade) of the same molecule?
**A.** Its tissue uptake at 4 h is 0.79 ± 0.11 %ID/g.

**Q.** And the tissue uptake at 1 h (in vivo; [7])?
**A.** Its tissue uptake at 1 h is 5.89 ± 1.02 %ID/g.

**Q.** What about the tissue uptake at 4 h (in vivo; [7]) of the same molecule?
**A.** Its tissue uptake at 4 h is 2.66 ± 0.16 %ID/g.

**Q.** And the tissue uptake at 24 h (in vivo; [7])?
**A.** The tissue uptake at 24 h was 2.07 ± 0.43 %ID/g.

**Q.** And the tissue uptake at 4 h (in vivo; stomach, 10 pmol, Stomach (not emptied), 10 pmol peptide (3.7 MBq/nmol) iv)?
**A.** Its tissue uptake at 4 h is 4.36 ± 0.56 %ID/g.

**Q.** And the tissue uptake at 4 h (in vivo; stomach, 200 pmol, Stomach (not emptied), 200 pmol peptide (0.185 MBq/nmol) iv, Table 1 dose study)?
**A.** Its tissue uptake at 4 h is 2.38 ± 0.13 %ID/g.

**Q.** What about the tissue uptake at 4 h (in vivo; stomach, 40 nmol, Stomach (not emptied), 40 nmol NeoBOMB1, in vivo GRPR-blockade) of the same molecule?
**A.** Its tissue uptake at 4 h is 0.42 ± 0.1 %ID/g.

**Q.** What about the tissue uptake at 4 h (in vivo; whole blood, 10 pmol, Blood, 10 pmol peptide (3.7 MBq/nmol) iv) of the same molecule?
**A.** Its tissue uptake at 4 h is 0.53 ± 0.04 %ID/g.

**Q.** And the tissue uptake at 4 h (in vivo; whole blood, 200 pmol, Blood, 200 pmol peptide (0.185 MBq/nmol) iv, Table 1 dose study)?
**A.** The tissue uptake at 4 h was 0.42 ± 0.06 %ID/g.

**Q.** What about the tissue uptake at 4 h (in vivo; whole blood, 40 nmol, Blood, 40 nmol NeoBOMB1, in vivo GRPR-blockade) of the same molecule?
**A.** The tissue uptake at 4 h was 0.46 ± 0.03 %ID/g.

**Q.** What about the “Intact radioligand in mouse circulation” value ([1]; blood collected 5 min pi) of the same molecule?
**A.** Its value is 98%.

**Q.** What about the “Intact radioligand in mouse circulation” value ([1]; blood collected 30 min pi) of the same molecule?
**A.** Its value is 90%.
